# According to US20210379129A1 (BIOCOMO INCORPORATION, published 2021):
# B1: human OX40L incorporated into the envelope of BC-PIV particles (ligand)
# chain: MERVQPLEENVGNAARPRFERNKLLLVASVIQGLGLLLCFTYICLHFSALQVSHRYPRIQSIKVQFTEYKKEKGFILTSQKEDEIMKVQNNSVIINCDGFYLISLKGYFSQEVNISLHYQKDEEPLFQLKKVRSVNSLMVASLTYKDKVYLNVTTDNTSLDDFHVNGGELILIHQNPGEFCVL
# modifications: Membrane-anchored type II protein on the BC-PIV envelope, expected as a homotrimer; one protomer is given.
# notes: Whole membrane protein on virus particles coated on the ELISA plate; also called human OX40L-carrying BC-PIV
# B2: mouse 4-1BB receptor (C-terminal human IgG Fc Tag; BioLegend Inc, Cat #756704) (Fc fusion)
# chain: VQNSCDNCQPGTFCRKYNPVCKSCPPSTFSSIGGQPNCNICRVCAGYFRFKKFCSSTHNAECECIEGFHCLGPQCTRCEKDCRPGQELTKQGCKTCSLGTFNDQNGTGVCRPWTNCSLDGRSVLKTGTTEKDVVCGPPVVSFSPSTTISVTPEGGPGGHSLQVL
# notes: Bought reagent; also called mouse 4-1BB receptor protein; not shown: C-terminal human IgG Fc tag
# B3: trimeric mouse OX40 receptor (C-terminal human IgG Fc Tag; BioLegend Inc, Cat #78904) (Fc fusion)
# chain: VTARRLNCVKHTYPSGHKCCRECQPGHGMVSRCDHTRDTLCHPCETGFYNEAVNYDTCKQCTQCNHRSGSELKQNCTPTQDTVCRCRPGTQPRQDSGYKLGVDCVPCPPGHFSPGNNQACKPWTNCTLSGKQTRHPASDSLDAVCEDRSLLATLLWETQRPTFRPTTVQSTTVWPRTSELPSPPTLVTPEGP
# notes: Bought reagent, called 'trimeric'; not shown: C-terminal human IgG Fc tag
# Key:
# [1] = target: T1, human OX40 receptor (BioLegend Inc, Cat #780804) (human, UniProt P43489 29-214); test: ELISA: 1x10^6 BC-PIV particles coated per well, receptor added at 1, 10, 50, 100 ng, HRP-Protein A, absorbance at 450 nm
# T1 construct: Bought reagent; No Fc tag is stated for this one, but detection was by HRP-Protein A 'adsorbed on the human Fc region', so a human Fc tag is likely; also called human OX40 receptor protein
# T1 sequence: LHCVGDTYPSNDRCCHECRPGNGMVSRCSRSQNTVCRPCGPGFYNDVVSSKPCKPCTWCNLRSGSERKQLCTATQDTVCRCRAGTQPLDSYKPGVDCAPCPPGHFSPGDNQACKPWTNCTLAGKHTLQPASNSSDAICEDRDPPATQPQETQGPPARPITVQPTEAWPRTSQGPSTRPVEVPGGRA
# [2] = target: T2, mouse 4-1BBL incorporated into the envelope of BC-PIV particles (mouse, UniProt P41274 1-309, Membrane-anchored type II protein on the BC-PIV envelope; paragraph 280 expects trimers that associate into higher multimers; one protomer is given.); test: ELISA: 1x10^6 BC-PIV particles coated per well, receptor-Fc added at 1, 10, 50, 100 ng, HRP-Protein A, absorbance at 450 nm
# T2 construct: Whole membrane protein on virus particles coated on the ELISA plate; also called mouse 4-1BBL-carrying BC-PIV; BC-PIV/4-1BBL
# T2 sequence: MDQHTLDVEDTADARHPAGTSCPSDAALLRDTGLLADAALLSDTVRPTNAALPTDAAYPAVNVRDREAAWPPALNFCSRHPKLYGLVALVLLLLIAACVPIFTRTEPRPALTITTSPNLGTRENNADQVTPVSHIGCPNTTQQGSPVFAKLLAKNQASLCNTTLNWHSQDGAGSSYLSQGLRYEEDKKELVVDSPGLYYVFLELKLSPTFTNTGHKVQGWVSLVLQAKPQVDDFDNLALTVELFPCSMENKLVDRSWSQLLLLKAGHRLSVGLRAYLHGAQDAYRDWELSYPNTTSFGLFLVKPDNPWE
# [3] = target: T3, mouse OX40L incorporated into the envelope of BC-PIV particles (mouse, UniProt P43488 1-198, Membrane-anchored type II protein on the BC-PIV envelope, expected as a homotrimer; one protomer is given.); test: as above
# T3 construct: Whole membrane protein on virus particles coated on the ELISA plate (1x10^6 particles per well); The form 'whole, on cells' is the nearest choice; the carrier is a virus envelope; also called mouse OX40L-carrying BC-PIV; BC-PIV/OX40L
# T3 sequence: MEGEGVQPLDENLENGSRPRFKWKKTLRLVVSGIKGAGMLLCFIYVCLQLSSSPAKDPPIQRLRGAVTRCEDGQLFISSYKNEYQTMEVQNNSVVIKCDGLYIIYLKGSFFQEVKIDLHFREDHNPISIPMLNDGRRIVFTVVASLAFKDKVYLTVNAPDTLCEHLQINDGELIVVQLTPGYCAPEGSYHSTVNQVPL
binder,measurement,setting,value
B1,binding result,[1],binds
B2,binding result,[2],binds
B3,binding result,[3],binds
